Measured values published in patent US6669963B1, “Stable particle in liquid formulations” (Elan Drug Delivery Limited, priority 1997, dated 2003).

How the values were obtained:
[1] = Storage stability of EPO preparations, residual EPO by Quantikine IVD EPO-specific immunoassay; type: physicochemical; details: within one day
Description: Freeze dried EPO was re-hydrated and diluted 100 fold with a buffer of the following composition:
and dried in a spray dryer as above. The powder was weighed into 125 mg aliquots and subjected to secondary drying at a temperature ramping from 40° C. to 80° C. at a rate of 15 degrees per hour under vacuum and then either sealed in a serum vial or re-suspended in 0.5 ml of mineral oil BP and sealed. They were then stored at 37° C. or 55° C. for up to 15 days. At the end of the storage period, residual EPO was extracted into phosphate buffered saline containing 0.01% BSA as above and the amount remaining in the extract was measured using a Quantikine IVD EPO-specific immunoassay (RD Systems Inc).

phage lambda DNA = test: Storage stability of EcoR1 preparations, residual titre by complete cutting of DNA; type: physicochemical
Description: Restriction enzymes are customarily stored in freezers at −20° C. in buffers containing 50% glycerol to prevent ice formation. Even under these conditions some of them have a limited storage life and need to be replaced at intervals. Several enzymes were dried using the technique of the present invention with similar results. The data with one enzyme, EcoR1, is illustrated. The enzyme solution was diluted 100 fold in SC buffer (Colaco C. A. L. S., Sen S., Thangavelu M., Pinder S. and Roser B. “Extraordinary stability of enzymes dried in trehalose: Simplified molecular biology.” Biotechnol. 10 1007-1011 (1992)). The dried enzyme was produced in the spray dryer as above, sealed in vials with or without oil and its stability was compared with fresh liquid enzyme diluted in cutting buffer at three storage temperatures 4° C., 37° C. and 55° C. To determine residual activity after storage, the enzyme was recovered into the acueous phase as described earlier, diluted with SC buffer in a 2-fold dilution series and used to cut 0.5 μg of phage lambda DNA (Life Technologies Inc). The completeness of cutting at various dilutions was assessed by separating the DNA fragments by agarose gel electrophoresis in which the bands were visualised under UV light by ethidium bromide staining.

Work on “fresh EPO: Recombinant Human Erythropoietin, not dried in trehalose” yielded a loss of activity ([1]; 37° C.) of 88% and a loss of activity ([1]; 55° C.) of over 95%.
In the case of “fresh enzyme: Restriction Endonuclease EcoR1, fresh liquid enzyme diluted in cutting buffer”, the activity on storage (phage lambda DNA; 4° C., over 28 days) was “stable”, the activity on storage (phage lambda DNA; 37° C., by 28 days) was “lost essentially all activity” and the “time to completely inactive” value (phage lambda DNA; 55° C.) was at most 7 days.
